Numbering of substitutions follows the chain as printed.

The text below walks through data of US20230265198A1 (TWIST BIOSCIENCE, published 2023).

Assay [1] has as its target T1, neuropilin-1 (NRP1) on HEK293 cells overexpressing NRP1 (UniProt O14786 22-923, limits assumed).
T1 construct: whole, on cells
As to the kind of experiment: flow cytometry, HEK293-NRP1 vs HEK293.

Assay [2] addresses neuropilin-1 (NRP1), analyte in SPR (UniProt O14786 22-644, limits assumed). As to the kind of experiment: SPR, Carterra LSA, antibody coupled. How it is done:
SPR experiments were performed on a Carterra LSA SPR biosensor equipped with a HC30M chip at 25° C. in HBS-TE. Antibodies were diluted to 10 μg/mL and amine-coupled to the sensor chip by EDC/NHS activation, followed by ethanolamine HCl quenching. Increasing concentrations of analyte were flowed over the sensor chip in HBS-TE with 0.5 mg/mL BSA with 5-minute association and 15-minute dissociation. Following each injection cycle the surface was regenerated with 2× 30-second injections of IgG elution buffer (Thermo). Data were analyzed in Carterra's Kinetics Tool software with 1:1 binding model.

B1: NRP1-115 (antibody, IgG2, V domains shown)
VH: EVQLLESGGGLVQPGGSLRLSCAASGFTFGHYEMDWVRQAPGKGLEWVSSIDDRGRYTYYADSVKGRFTISRDNSKNTLYLQMNSLRAEDTAVYYCARSKIAFDYWGQGTLVTVSS
VL: DIQMTQSPSSLSASVGDRVTITCRASQNIRSYLNWYQQKPGKAPKLLIYGRNKRPSGVPSRFSGSGSGTDFTLTISSLQPEDFATYYCQQSYENPLTFGQGTKVEIK
Usually Kd stands for the constant that tells how readily two partners part at equilibrium. A high value points to a looser complex. In general, koff refers to the first-order rate constant of dissociation. Low readings indicate a long-lived complex, high ones a short-lived complex. The kon is the rate constant with which the complex forms. A high value points to faster complex formation. In the case of B1, in assay [1], the “100 nM FACS (MFI Ratio)” value was determined as 0.8. In assay [2], this molecule registered a Kd of 87.4 nM, a koff of 0.00951 s⁻¹ and a kon of 109000 M⁻¹ s⁻¹.

B2: NRP1-132 (antibody, IgG2, V domains shown)
VH: EVQLLESGGGLVQPGGSLRLSCAASGFTFGDHGMGWVRQAPGKGLEWVSYITPKGDHTYYADSVKGRFTISRDNSKNTLYLQMNSLRAEDTAVYYCASLPKRGPRFDYWGQGTLVTVSS
VL: B1 VL with G50R, R51L, N52S, K53V, R54L, P55Q, S91G, E93T, N94L, L96W
Regarding B2, the “100 nM FACS (MFI Ratio)” value in assay [1] amounted to 0.8. Besides, in assay [2], the binding result is “no binding”.

B3: NRP1-6 (VHH)
VHH: EVQLVESGGGLVQPGGSLRLSCAASGLTYTMNWFRQAPGKEREFVAGFAGIGTVTSYADSVKGRFTISADNSKNTAYLQMNSLKPEDTAVYYCSGFDGYSGSDWGQGTLVTVSS
With B3, the “100 nM FACS (MFI Ratio)” value in assay [1] worked out at 0.5. In addition, in assay [2], the binding result is “no binding”.

B4: NRP1-68 (VHH)
VHH: EVQLVESGGGLVQPGGSLRLSCAASGNIFINNAMGWFRQAPGKERELVAAITSSSGRRWYADSVKGRFTISADNSKNTAYLQMNSLKPEDTAVYYCTTDRWYSSNWWGQGTLVTVSS
As for B4, the “100 nM FACS (MFI Ratio)” value in assay [1] came out at 4.9.

B5: NRP1-4 (VHH)
VHH: EVQLVESGGGLVQPGGSLRLSCAASGNIFINNAMGWFRQAPGKERELVAAITSSSGRRWYADSVKGRFTISADNSKNTAYLQMNSLKPEDTAVYYCAARRIVNVEGAYRDWGQGTLVTVSS
As for B5, the “100 nM FACS (MFI Ratio)” value in assay [1] is 30.9. Moreover, in assay [2], binding was put at a Kd of 183 nM, the koff worked out at 0.047 s⁻¹ and the kon came to 256000 M⁻¹ s⁻¹.

B6: NRP1-67 (VHH)
VHH: EVQLVESGGGLVQPGGSLRLSCAASGLYLHSSAMGWFRQAPGKEREFVAAISSSDGSTEYADSVKGRFTISADNSKNTAYLQMNSLKPEDTAVYYCASVRYYDYWSGYYTPTHAGYFESWGQGTLVTVSS
On to B6, for which the “100 nM FACS (MFI Ratio)” value in assay [1] turned out to be 2.1.

B7: NRP1-128 (antibody, IgG2, V domains shown)
VH: EVQLLESGGGLVQPGGSLRLSCAASGFTFSRYAMNWVRQAPGKGLEWVSAISGSGGNTYYADSVKGRFTISRDNSKNTLYLQMNSLRAEDTAVYYCARVRRGGATDYWGQGTLVTVSS
VL: DIQMTQSPSSLSASVGDRVTITCRASQDVSSGVAWYQQKPGKAPKLLIYGKNIRPSGVPSRFSGSGSGTDFTLTISSLQPEDFATYYCQQTYSPPLTFGQGTKVEIK
For B7, the “100 nM FACS (MFI Ratio)” value in assay [1] turned out to be 1.2. Also, the binding result in assay [2] is listed as “no binding”.

B8: NRP1-15 (VHH)
VHH: EVQLVESGGGLVQPGGSLRLSCAASGFTFSNYDMGWFRQAPGKEREFVAAISWSGTLTSYADSVKGRFTISADNSKNTAYLQMNSLKPEDTAVYYCARQRETGHLILYSDYYYGMDVWGQGTLVTVSS
For the molecule B8, the “100 nM FACS (MFI Ratio)” value in assay [1] is 6.5. For the same molecule, the binding result in assay [2] is on record as “no binding”.

B9: NRP1-8 (VHH)
VHH: EVQLVESGGGLVQPGGSLRLSCAASGFPLDDYAMGWFRQAPGKEREFVAAINWSGGSAVYADSVKGRFTISADNSKNTAYLQMNSLKPEDTAVYYCMRGGSYGDYGGYWGQGTLVTVSS
For the molecule B9, the “100 nM FACS (MFI Ratio)” value in assay [1] is 3.1. In assay [2], binding was characterised by a dissociation constant (Kd) of 91.1 nM, the koff was determined as 0.00283 s⁻¹ and the kon turned out to be 31100 M⁻¹ s⁻¹.

B10: NRP1-204 (antibody, IgG2, V domains shown)
VH: EVQLLESGGGLVQPGGSLRLSCAASGFTFSAFAMSWVRQAPGKGLEWVSGTSGSGGSTYYADSVKGRFTISRDNSKNTLYLQMNSLRAEDTAVYYCARHRAYSYGLDYWGQGTLVTVSS
VL: DIQMTQSPSSLSASVGDRVTITCRARQSISTYLNWYQQKPGKAPKLLIYSASTLESGVPSRFSGSGSGTDFTLTISSLQPEDFATYYCQQSYRTPWTFGGGTKVEIK
For B10, the “100 nM FACS (MFI Ratio)” value in assay [1] amounted to 9.2. Besides, in assay [2], binding was put at a Kd of 408000 nM, the koff was found to be 0.0897 s⁻¹ and the kon stood at 220 M⁻¹ s⁻¹.

B11: NRP1-210 (antibody, IgG2, V domains shown)
VH: EVQLLESGGGLVQPGGSLRLSCAASGFTFSSYVMAWVRQAPGKGLEWVSTISASGGTTYYADSVKGRFTISRDNSKNTLYLQMNSLRAEDTAVYYCAKVGSGWYFWGQGTLVTVSS
VL: B10 VL with A25T, R26S, T31R, S50A, T53S, E55Q, S56G, R93T, T94V, W96I
As to B11, in assay [1], the “100 nM FACS (MFI Ratio)” value came to 2.1. Also, the binding result in assay [2] was “no binding”.

B12: NRP1-134 (antibody, IgG2, V domains shown)
VH: EVQLLESGGGLVQPGGSLRLSCAASGFTFSNYGVSWVRQAPGKGLEWVSEISPSGKKKYYADSVKGRFTISRDNSKNTLYLQMNSLRAEDTAVYYCAKTTDIQRLNSAFDYWGQGTLVTVSS
VL: DIQMTQSPSSLSASVGDRVTITCRASQPIAYFLSWYQQKPGKAPKLLIYDASSLHTGVPSRFSGSGSGTDFTLTISSLQPEDFATYYCSSRDKSGSRLVTFGQGTKVEIK
Consider B12, for which the “100 nM FACS (MFI Ratio)” value in assay [1] was 1.9. For the same molecule, the binding result in assay [2] is “no binding”.

B13: NRP1-5 (VHH)
VHH: EVQLVESGGGLVQPGGSLRLSCAASGNIDRLYVMGWFRQAPGKEREFVAAINWSSGTTVYADSVKGRFTISADNSKNTAYLQMNSLKPEDTAVYYCARSYSSLFRFDYWGQGTLVTVSS
Consider B13, for which, in assay [1], the “100 nM FACS (MFI Ratio)” value came out at 14.8.

B14: NRP1-64 (VHH)
VHH: EVQLVESGGGLVQPGGSLRLSCAASGSTFRGAAMGWFRQAPGKEREWVGTISSDGTTKYADSVKGRFTISADNSKNTAYLQMNSLKPEDTAVYYCAADRVLYYSDSRYYTGSNWGQGTLVTVSS
As to B14, the “100 nM FACS (MFI Ratio)” value in assay [1] came out at 0.8.

B15: NRP1-118 (antibody, IgG2, V domains shown)
VH: EVQLLESGGGLVQPGGSLRLSCAASGFTFNKYPMMWVRQAPGKGLEWVSRISVAGRRTAYADSVKGRFTISRDNSKNTLYLQMNSLRAEDTAVYYCAKWRREGYTGSKFDYWGQGTLVTVSS
VL: DIQMTQSPSSLSASVGDRVTITCSASQDINKYLNWYQQKPGKAPKLLIYGTSNLESGVPSRFSGSGSGTDFTLTISSLQPEDFATYYCHTWDHHHTTGEHNVFGQGTKVEIK
As to B15, the “100 nM FACS (MFI Ratio)” value in assay [1] was determined as 4.5. Also, the binding result in assay [2] was “no binding”.

B16: NRP1-18 (VHH)
VHH: EVQLVESGGGLVQPGGSLRLSCAASGFRFSSYGMGWFRQAPGKEREFVAFISGNPSRTYYADSVKGRFTISADNSKNTAYLQMNSLKPEDTAVYYCAARPYQKYNWASASYNWGQGTLVTVSS
For B16, in assay [1], the “100 nM FACS (MFI Ratio)” value was determined as 20.8. In assay [2], this molecule returned a Kd of 290 nM, a koff of 0.00374 s⁻¹ and a kon of 12900 M⁻¹ s⁻¹.

B17: NRP1-125 (antibody, IgG2, V domains shown)
VH: EVQLLESGGGLVQPGGSLRLSCAASGFTFSGYDMQWVRQAPGKGLEWVSSISGYGSTTYYADSVKGRFTISRDNSKNTLYLQMNSLRAEDTAVYYCAKGRRIFDYWGQGTLVTVSS
VL: DIQMTQSPSSLSASVGDRVTITCRASQTIERRLNWYQQKPGKAPKLLIYRKSNRPSGVPSRFSGSGSGTDFTLTISSLQPEDFATYYCQQNNNWPTTFGQGTKVEIK
As for B17, in assay [1], the “100 nM FACS (MFI Ratio)” value is 0.6. In assay [2], the binding result was “no binding”.

B18: NRP1-25 (VHH)
VHH: EVQLVESGGGLVQPGGSLRLSCAASGRTSNIYAMGWFRQAPGKERELVAAIRWSGVETYYADSVKGRFTISADNSKNTAYLQMNSLKPEDTAVYYCAADRMYRPVGNQYDWGQGTLVTVSS
Regarding B18, the “100 nM FACS (MFI Ratio)” value in assay [1] is 8.9. In assay [2], this molecule showed a Kd of 831 nM, a koff of 0.00969 s⁻¹ and a kon of 11700 M⁻¹ s⁻¹.

B19: NRP1-73 (VHH)
VHH: EVQLVESGGGLVQPGGSLRLSCAASGFTFSGNWMGWFRQAPGKERELVAVILRGGSTNYADSVKGRFTISADNSKNTAYLQMNSLKPEDTAVYYCAVKIYSGSYSSPPGYNWGQGTLVTVSS
Take B19: the “100 nM FACS (MFI Ratio)” value in assay [1] is 5.9.

B20: NRP1-66 (VHH)
VHH: EVQLVESGGGLVQPGGSLRLSCAASGRTFRPYRMGWFRQAPGKERELVAAITSGTHKDYADSVKGRFTISADNSKNTAYLQMNSLKPEDTAVYYCAADYSGSYTSLWSRPERLWGQGTLVTVSS
For the molecule B20, the “100 nM FACS (MFI Ratio)” value in assay [1] is 1.1.

B21: NRP1-69 (VHH)
VHH: EVQLVESGGGLVQPGGSLRLSCAASGFNFNWYPMGWFRQAPGKEREWVGTINSGGSTSYADSVKGRFTISADNSKNTAYLQMNSLKPEDTAVYYCARLPPRGSYYYYYYGMDVWGQGTLVTVSS
With B21, in assay [1], the “100 nM FACS (MFI Ratio)” value amounted to 8.2.

B22: NRP1-11 (VHH)
VHH: EVQLVESGGGLVQPGGSLRLSCAASGRTFTTYPMGWFRQAPGKEREFVAAITWNGASTSYADSVKGRFTISADNSKNTAYLQMNSLKPEDTAVYYCAKGGGYSGYDYDYWGQGTLVTVSS
B22: the “100 nM FACS (MFI Ratio)” value in assay [1] worked out at 2.3. Moreover, the binding result in assay [2] is recorded as “no binding”.
